Values quoted from earlier work, collected in PMC3901153.

Columns and labels:
RAGE (Homo sapiens) = RAGE (Homo sapiens) (UniProt Q15109)
TLR4 (Homo sapiens) = TLR4 (Homo sapiens) (UniProt O00206)
Chain of UniProt O00206 (O00206 24-839): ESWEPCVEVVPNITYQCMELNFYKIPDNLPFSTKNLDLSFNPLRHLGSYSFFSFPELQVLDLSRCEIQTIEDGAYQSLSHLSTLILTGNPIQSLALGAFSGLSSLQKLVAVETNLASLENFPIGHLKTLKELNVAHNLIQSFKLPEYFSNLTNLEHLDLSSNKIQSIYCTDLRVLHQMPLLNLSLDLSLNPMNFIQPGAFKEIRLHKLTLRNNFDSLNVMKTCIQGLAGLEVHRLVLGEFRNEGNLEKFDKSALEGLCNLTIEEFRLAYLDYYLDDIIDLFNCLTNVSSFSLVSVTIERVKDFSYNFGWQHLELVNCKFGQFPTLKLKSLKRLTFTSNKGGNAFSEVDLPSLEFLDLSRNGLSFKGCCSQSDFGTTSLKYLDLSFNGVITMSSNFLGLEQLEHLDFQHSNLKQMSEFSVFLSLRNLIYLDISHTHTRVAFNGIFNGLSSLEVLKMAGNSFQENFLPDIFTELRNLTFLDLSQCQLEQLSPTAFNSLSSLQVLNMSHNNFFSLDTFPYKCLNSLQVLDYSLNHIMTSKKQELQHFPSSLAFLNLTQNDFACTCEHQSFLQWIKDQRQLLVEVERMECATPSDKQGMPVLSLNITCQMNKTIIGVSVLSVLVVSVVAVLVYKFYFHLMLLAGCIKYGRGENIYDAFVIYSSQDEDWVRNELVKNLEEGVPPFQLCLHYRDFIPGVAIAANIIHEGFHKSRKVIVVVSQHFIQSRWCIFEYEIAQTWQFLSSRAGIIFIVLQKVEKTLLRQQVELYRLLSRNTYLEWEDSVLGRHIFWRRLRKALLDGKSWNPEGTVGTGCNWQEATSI

Chain of UniProt Q15109 (Q15109 23-404): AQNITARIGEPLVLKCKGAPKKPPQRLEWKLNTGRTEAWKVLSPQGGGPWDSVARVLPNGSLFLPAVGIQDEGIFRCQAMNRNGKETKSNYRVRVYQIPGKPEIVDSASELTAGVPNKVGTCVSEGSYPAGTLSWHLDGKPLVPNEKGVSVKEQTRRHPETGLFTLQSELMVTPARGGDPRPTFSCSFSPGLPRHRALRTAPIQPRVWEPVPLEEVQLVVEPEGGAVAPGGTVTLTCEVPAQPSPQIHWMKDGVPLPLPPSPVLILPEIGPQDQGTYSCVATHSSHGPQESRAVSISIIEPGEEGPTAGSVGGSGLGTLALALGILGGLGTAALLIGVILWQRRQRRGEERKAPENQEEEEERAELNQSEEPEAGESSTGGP

**Q.** For HMGB1 (from UniProt P09429), which Kd (RAGE (Homo sapiens)) is on record?
**A.** Its Kd is 10 nM.

**Q.** What about the Kd (TLR4 (Homo sapiens)) of the same substance?
**A.** Its Kd is 1500 nM.
